Experimental data from the supplement of paper PMC9112550, “Optimization of the antimicrobial peptide Bac7 by deep mutational scanning” (BMC Biology, 2022).

System: Escherichia coli TOP10
Experiment: shrunken log2 fold change of peptide-encoding DNA abundance (4.5 h post-induction vs induction); higher = less antimicrobial activity (less host growth inhibition)
Settings: time post-induction: 4.5 h; library: site-saturation at positions 5, 18, 19, 20
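Also: peptides expressed intracellularly from a pBAD plasmid library in pooled LB shake-flask culture, induced with 0.3% L-arabinose, DNA abundance read by NGS, three biological replicates, DESeq2 with apeglm shrinkage.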

Sequence: RRIRNRPPRLPRPRPRPCWNPRP
- shrunken log2 fold change: -0.429

Sequence: RRIRNRPPRLPRPRPRPSAAPRP
- shrunken log2 fold change: 0.338

Sequence: RRIRTRPPRLPRPRPRPVIIPRP
- shrunken log2 fold change: -0.213

Sequence: RRIRFRPPRLPRPRPRPIFCPRP
- shrunken log2 fold change: -0.155

Sequence: RRIRQRPPRLPRPRPRPHKKPRP
- shrunken log2 fold change: -0.215

Sequence: RRIRHRPPRLPRPRPRPESWPRP
- shrunken log2 fold change: -0.00647

Sequence: RRIRYRPPRLPRPRPRPDNVPRP
- shrunken log2 fold change: -0.0165

Sequence: RRIRYRPPRLPRPRPRPYNRPRP
- shrunken log2 fold change: -0.0152

Sequence: RRIRERPPRLPRPRPRPCHFPRP
- shrunken log2 fold change: 0.161

Sequence: RRIRVRPPRLPRPRPRPLKRPRP
- shrunken log2 fold change: 0.0621

Sequence: RRIRGRPPRLPRPRPRPYMPPRP
- shrunken log2 fold change: -0.191

Sequence: RRIRPRPPRLPRPRPRPNIAPRP
- shrunken log2 fold change: 0.225

Sequence: RRIRYRPPRLPRPRPRPVGWPRP
- shrunken log2 fold change: 0.344

Sequence: RRIRPRPPRLPRPRPRPDMKPRP
- shrunken log2 fold change: -0.417

Sequence: RRIRLRPPRLPRPRPRPNGRPRP
- shrunken log2 fold change: -0.192

Sequence: RRIRTRPPRLPRPRPRPVWFPRP
- shrunken log2 fold change: 0.0412

Sequence: RRIRHRPPRLPRPRPRPRVLPRP
- shrunken log2 fold change: -0.0249

Sequence: RRIRIRPPRLPRPRPRPPFKPRP
- shrunken log2 fold change: 0.228

Sequence: RRIRMRPPRLPRPRPRPAEIPRP
- shrunken log2 fold change: 0.11

Sequence: RRIRKRPPRLPRPRPRPVVMPRP
- shrunken log2 fold change: 3.16

Sequence: RRIRRRPPRLPRPRPRPTARPRP
- shrunken log2 fold change: 0.494

Sequence: RRIRFRPPRLPRPRPRPKWHPRP
- shrunken log2 fold change: -0.0786

Sequence: RRIRWRPPRLPRPRPRPQGSPRP
- shrunken log2 fold change: -0.00843

Sequence: RRIRERPPRLPRPRPRPHRVPRP
- shrunken log2 fold change: 0.0121

Sequence: RRIRKRPPRLPRPRPRPSAHPRP
- shrunken log2 fold change: 0.164

Sequence: RRIRWRPPRLPRPRPRPHYKPRP
- shrunken log2 fold change: -0.631

Sequence: RRIRQRPPRLPRPRPRPGGFPRP
- shrunken log2 fold change: 0.0441

Sequence: RRIRHRPPRLPRPRPRPQCFPRP
- shrunken log2 fold change: -0.0477

Sequence: RRIRFRPPRLPRPRPRPDCYPRP
- shrunken log2 fold change: -0.329

Sequence: RRIRHRPPRLPRPRPRPQVPPRP
- shrunken log2 fold change: 0.0019

Sequence: RRIRHRPPRLPRPRPRPIPTPRP
- shrunken log2 fold change: -0.218

Sequence: RRIRNRPPRLPRPRPRPKQIPRP
- shrunken log2 fold change: -0.294

Sequence: RRIRCRPPRLPRPRPRPHHYPRP
- shrunken log2 fold change: -0.685

Sequence: RRIRVRPPRLPRPRPRPGERPRP
- shrunken log2 fold change: 0.674

Sequence: RRIRDRPPRLPRPRPRPLAVPRP
- shrunken log2 fold change: 0.887

Sequence: RRIRWRPPRLPRPRPRPPGGPRP
- shrunken log2 fold change: 0.669

Sequence: RRIRPRPPRLPRPRPRPCRFPRP
- shrunken log2 fold change: 0.086

Sequence: RRIRARPPRLPRPRPRPVSFPRP
- shrunken log2 fold change: 0.368

Sequence: RRIRIRPPRLPRPRPRPAICPRP
- shrunken log2 fold change: -0.15

Sequence: RRIRIRPPRLPRPRPRPVLGPRP
- shrunken log2 fold change: 0.0875

Sequence: RRIRHRPPRLPRPRPRPLCWPRP
- shrunken log2 fold change: -0.0222

Sequence: RRIRTRPPRLPRPRPRPRSQPRP
- shrunken log2 fold change: 1.58

Sequence: RRIRERPPRLPRPRPRPVFRPRP
- shrunken log2 fold change: -0.0125

Sequence: RRIRMRPPRLPRPRPRPSASPRP
- shrunken log2 fold change: 1.7

Sequence: RRIRIRPPRLPRPRPRPIFEPRP
- shrunken log2 fold change: -0.0533

Sequence: RRIRERPPRLPRPRPRPHIPPRP
- shrunken log2 fold change: -0.682

Sequence: RRIRYRPPRLPRPRPRPSKWPRP
- shrunken log2 fold change: -0.155

Sequence: RRIRSRPPRLPRPRPRPPGQPRP
- shrunken log2 fold change: 0.4

Sequence: RRIRYRPPRLPRPRPRPGRRPRP
- shrunken log2 fold change: 2.15

Sequence: RRIRQRPPRLPRPRPRPLHRPRP
- shrunken log2 fold change: -0.11

Sequence: RRIRMRPPRLPRPRPRPSVHPRP
- shrunken log2 fold change: -0.0707

Sequence: RRIRGRPPRLPRPRPRPLPWPRP
- shrunken log2 fold change: 0.702

Sequence: RRIRLRPPRLPRPRPRPCDVPRP
- shrunken log2 fold change: -0.255

Sequence: RRIRSRPPRLPRPRPRPSYWPRP
- shrunken log2 fold change: 2.29

Sequence: RRIRCRPPRLPRPRPRPDVSPRP
- shrunken log2 fold change: -0.185

Sequence: RRIRHRPPRLPRPRPRPCWRPRP
- shrunken log2 fold change: 0.0476

Sequence: RRIRTRPPRLPRPRPRPWDCPRP
- shrunken log2 fold change: -0.000687

Sequence: RRIRTRPPRLPRPRPRPIMTPRP
- shrunken log2 fold change: -0.0418

Sequence: RRIRHRPPRLPRPRPRPHKVPRP
- shrunken log2 fold change: -0.299

Sequence: RRIRMRPPRLPRPRPRPPGNPRP
- shrunken log2 fold change: 0.475

Sequence: RRIRPRPPRLPRPRPRPDQSPRP
- shrunken log2 fold change: 0.021

Sequence: RRIRERPPRLPRPRPRPWEPPRP
- shrunken log2 fold change: 0.073

Sequence: RRIRPRPPRLPRPRPRPSMFPRP
- shrunken log2 fold change: -0.437

Sequence: RRIRQRPPRLPRPRPRPCRWPRP
- shrunken log2 fold change: -0.0062

Sequence: RRIRARPPRLPRPRPRPVIHPRP
- shrunken log2 fold change: -0.307

Sequence: RRIRTRPPRLPRPRPRPQFDPRP
- shrunken log2 fold change: -0.652

Sequence: RRIRARPPRLPRPRPRPLYRPRP
- shrunken log2 fold change: -0.28

Sequence: RRIRCRPPRLPRPRPRPVPAPRP
- shrunken log2 fold change: 0.457

Sequence: RRIRYRPPRLPRPRPRPMYAPRP
- shrunken log2 fold change: -0.0214

Sequence: RRIRDRPPRLPRPRPRPFLRPRP
- shrunken log2 fold change: 0.00895

Sequence: RRIRGRPPRLPRPRPRPSKVPRP
- shrunken log2 fold change: -0.116

Sequence: RRIRQRPPRLPRPRPRPEKHPRP
- shrunken log2 fold change: -0.214

Sequence: RRIRLRPPRLPRPRPRPETFPRP
- shrunken log2 fold change: 0.0211

Sequence: RRIRTRPPRLPRPRPRPLIHPRP
- shrunken log2 fold change: -0.552

Sequence: RRIRFRPPRLPRPRPRPNDTPRP
- shrunken log2 fold change: -0.179

Sequence: RRIRKRPPRLPRPRPRPSICPRP
- shrunken log2 fold change: 0.242

Sequence: RRIRPRPPRLPRPRPRPGYFPRP
- shrunken log2 fold change: -0.0323

Sequence: RRIRFRPPRLPRPRPRPIWNPRP
- shrunken log2 fold change: -0.147

Sequence: RRIRQRPPRLPRPRPRPHVTPRP
- shrunken log2 fold change: 0.0406

Sequence: RRIRKRPPRLPRPRPRPFGHPRP
- shrunken log2 fold change: -0.00208

Sequence: RRIRKRPPRLPRPRPRPSNTPRP
- shrunken log2 fold change: -0.231

Sequence: RRIRIRPPRLPRPRPRPKLDPRP
- shrunken log2 fold change: -0.106

Sequence: RRIRDRPPRLPRPRPRPCNNPRP
- shrunken log2 fold change: -0.931

Sequence: RRIRCRPPRLPRPRPRPYAAPRP
- shrunken log2 fold change: -0.269

Sequence: RRIRGRPPRLPRPRPRPMRWPRP
- shrunken log2 fold change: 0.844

Sequence: RRIRIRPPRLPRPRPRPRFVPRP
- shrunken log2 fold change: -0.104

Sequence: RRIRIRPPRLPRPRPRPLLGPRP
- shrunken log2 fold change: -0.175

Sequence: RRIRNRPPRLPRPRPRPWMAPRP
- shrunken log2 fold change: -0.28

Sequence: RRIRRRPPRLPRPRPRPGIHPRP
- shrunken log2 fold change: 0.252

Sequence: RRIRQRPPRLPRPRPRPFVNPRP
- shrunken log2 fold change: -0.545

Sequence: RRIRMRPPRLPRPRPRPKFLPRP
- shrunken log2 fold change: 0.192

Sequence: RRIRARPPRLPRPRPRPLANPRP
- shrunken log2 fold change: 0.255

Sequence: RRIRYRPPRLPRPRPRPDWVPRP
- shrunken log2 fold change: -0.252

Sequence: RRIRMRPPRLPRPRPRPWCEPRP
- shrunken log2 fold change: -0.0233

Sequence: RRIRVRPPRLPRPRPRPTSPPRP
- shrunken log2 fold change: 0.0262

Sequence: RRIRRRPPRLPRPRPRPRSTPRP
- shrunken log2 fold change: 0.36

Sequence: RRIRYRPPRLPRPRPRPIHKPRP
- shrunken log2 fold change: -0.6

Sequence: RRIRVRPPRLPRPRPRPSPSPRP
- shrunken log2 fold change: -0.017

Sequence: RRIRRRPPRLPRPRPRPMASPRP
- shrunken log2 fold change: -0.00822

Sequence: RRIRGRPPRLPRPRPRPNPVPRP
- shrunken log2 fold change: 0.145

Sequence: RRIRKRPPRLPRPRPRPTWWPRP
- shrunken log2 fold change: 0.0302

Sequence: RRIRMRPPRLPRPRPRPQCPPRP
- shrunken log2 fold change: -0.181

Sequence: RRIRNRPPRLPRPRPRPWWSPRP
- shrunken log2 fold change: 0.0428

Sequence: RRIRRRPPRLPRPRPRPPICPRP
- shrunken log2 fold change: 0.152

Sequence: RRIRKRPPRLPRPRPRPKTYPRP
- shrunken log2 fold change: -0.156

Sequence: RRIRNRPPRLPRPRPRPESGPRP
- shrunken log2 fold change: -0.0271

Sequence: RRIRCRPPRLPRPRPRPKMSPRP
- shrunken log2 fold change: 0.157

Sequence: RRIRRRPPRLPRPRPRPYWIPRP
- shrunken log2 fold change: -0.918

Sequence: RRIRGRPPRLPRPRPRPINTPRP
- shrunken log2 fold change: -0.4

Sequence: RRIRDRPPRLPRPRPRPVWLPRP
- shrunken log2 fold change: 0.105

Sequence: RRIRGRPPRLPRPRPRPVKLPRP
- shrunken log2 fold change: -0.0292

Sequence: RRIRDRPPRLPRPRPRPRSNPRP
- shrunken log2 fold change: 0.148

Sequence: RRIRNRPPRLPRPRPRPLYYPRP
- shrunken log2 fold change: -0.0384

Sequence: RRIRERPPRLPRPRPRPSARPRP
- shrunken log2 fold change: -0.192

Sequence: RRIRIRPPRLPRPRPRPHWCPRP
- shrunken log2 fold change: 0.164

Sequence: RRIRQRPPRLPRPRPRPKVDPRP
- shrunken log2 fold change: 0.129

Sequence: RRIRRRPPRLPRPRPRPGFQPRP
- shrunken log2 fold change: 0.301

Sequence: RRIRDRPPRLPRPRPRPYIKPRP
- shrunken log2 fold change: -0.565

Sequence: RRIRIRPPRLPRPRPRPDWFPRP
- shrunken log2 fold change: 0.0564

Sequence: RRIRLRPPRLPRPRPRPHMCPRP
- shrunken log2 fold change: -0.165

Sequence: RRIRYRPPRLPRPRPRPLLQPRP
- shrunken log2 fold change: -0.309

Sequence: RRIRERPPRLPRPRPRPNQIPRP
- shrunken log2 fold change: -0.293

Sequence: RRIRGRPPRLPRPRPRPTYNPRP
- shrunken log2 fold change: 0.0375

Sequence: RRIRIRPPRLPRPRPRPYGTPRP
- shrunken log2 fold change: -0.894

Sequence: RRIRRRPPRLPRPRPRPNMMPRP
- shrunken log2 fold change: -0.245
